Source: paper PMC6066219 (PLoS ONE, 2018)
Marks after values point to notes of the source that are not given here. Starred links: 1 amine or outer side, 2 acyl side, 3 side chain; linkers in the order of their positions; H or OH if unused. Positions of bridges follow the written chain, without caps; N, C: chain ends. Non-standard residues stand in square brackets, D forms with d. Residues, ends and D or L forms follow the SMILES beside them. Chains are numbered I, II in the order given. *: point of attachment. X1 = CC1=CC(=O)N(O)CCCC(NC(=O)CCN2C(=O)CC([*:3])C2=O)C(=O)OCCC(C)=CC(=O)N(O)CCCC(NC(=O)CCN2C(=O)CC([*:2])C2=O)C(=O)OCCC(C)=CC(=O)N(O)CCCC(NC(=O)CCN2C(=O)CC([*:1])C2=O)C(=O)OCC1; X2 = CC(=O)NC1CCCN(O)C(=O)C=C(C)CCOC(=O)C(NC(=O)CCN2C(=O)CC([*:1])C2=O)CCCN(O)C(=O)C=C(C)CCOC(=O)C(NC(=O)CCN2C(=O)CC([*:2])C2=O)CCCN(O)C(=O)C=C(C)CCOC1=O; X3 = CC(=O)NC1CCCN(O)C(=O)C=C(C)CCOC(=O)C(NC(=O)CCN2C(=O)CC(*)C2=O)CCCN(O)C(=O)C=C(C)CCOC(=O)C(NC(C)=O)CCCN(O)C(=O)C=C(C)CCOC1=O; Nle = CCCC[C@H](N)C(=O)O; Mpa = O=C(O)CCS

Legend:
[1] = format: physicochemical; conditions: for logD: pH 7.4
Procedure: To determine the distribution of the ^68Ga-radiolabelled conjugates between an organic and aqueous layer aliquots (50 μL) of the tracers (10 μM) were diluted in 450 μL PBS and after adding 500 μL octanol the mixture was vortexed at 1400 rpm (MS 3 basic vortexer, IKA, Staufen, Germany) for 15 min at RT followed by centrifugation for 2 min at 4500 rpm. Subsequently, aliquots (100 μL) of both layers were collected and measured in the gamma counter (Wizard2 3”, Perkin Elmer, Waltham, MA, USA) followed by logD calculation using Excel (n = 3, six replicates).

in vivo = test: in vivo; design: species or system BALB/c nude mice; conditions: female, BALB/c nude, mouse, iv, total radioactivity
Procedure: (§1) Ex vivo biodistribution studies were conducted using female 8−10 weeks old athymic BALB/c nude mice (Charles River Laboratories, Sulzfeld, Germany). Tumour xenografts were induced by subcutaneous injection of 2 × 10^6 A431-CCK2R cells (receptor positive) in the right and 2 × 10^6 A431-mock cells (receptor negative) in the left flank and tumours were allowed to grow until they had reached a volume of 0.3–0.6 cm^3.To evaluate the biodistribution profile double tumour xenografted BALB/c nude mice (n = 3) were intravenously injected with 1–2 MBq of ^68Ga-labelled peptides (0.1–0.2 nmol). The animals were sacrificed by cervical dislocation after 1 h and 4 h in case of the trimer. The collected samples were measured in the gamma counter and the results were calculated as percentage of injected activity per gram tissue (% IA/g).

[2] = system: A431-CCK2R/A431-mock tumour xenografted BALB/c nude mice; test: in vivo; conditions: mouse
Procedure: as §1

CCK2 receptor = target: T1, CCK2 receptor (Homo sapiens, UniProt P32239); test: Receptor binding affinity studies (IC50) on whole A431-CCK2R cells vs 125I-[Leu15]-gastrin I; conditions: natGa-labelled competitor, 125I-[Leu15]-Gastrin radioligand
T1 construct: expressed in transfected cells; host or cells: A431 human epidermoid carcinoma cells (A431-CCK2R), gift from Dr. L. Aloj
T1 sequence (P32239 1-447): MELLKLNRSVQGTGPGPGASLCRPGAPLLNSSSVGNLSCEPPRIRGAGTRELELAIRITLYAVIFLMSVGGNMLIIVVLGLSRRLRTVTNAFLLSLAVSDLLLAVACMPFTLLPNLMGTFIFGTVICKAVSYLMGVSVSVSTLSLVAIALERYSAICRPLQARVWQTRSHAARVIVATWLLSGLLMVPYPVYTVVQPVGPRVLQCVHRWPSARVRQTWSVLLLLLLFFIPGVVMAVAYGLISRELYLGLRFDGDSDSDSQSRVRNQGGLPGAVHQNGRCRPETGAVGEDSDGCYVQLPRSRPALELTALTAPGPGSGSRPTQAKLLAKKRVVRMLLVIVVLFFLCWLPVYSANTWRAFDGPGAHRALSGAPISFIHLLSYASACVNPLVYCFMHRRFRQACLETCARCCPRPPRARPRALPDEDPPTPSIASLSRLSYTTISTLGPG
Procedure: Binding affinity studies on whole A431-CCK2R cells were performed as previously described. Briefly, 100 μL of cell suspension (5 × 10^6 cells/mL) was added to each well of a 96-well MultiScreen Filter Plate HTS (1 μm glass fiber filter, Merck Millipore, Darmstadt, Germany). Hereafter competitor solution was added with increasing concentrations [0.001−1.000 nM] and after 10 min at RT human [Leu^15]-gastrin I radiolabelled with iodine-125 as described in [16] was added (4.5 × 10^4 cpm) and the plate was maintained under shaking conditions (Compact shaker KS-15 control, 200/min) at ambient temperature. After 1 h each well was washed twice with 200 μL TRIS-buffered saline (pH 7.3), filters were collected and measured in the gamma counter followed by nonlinear curve fitting with Origin 6.1 software (Northampton, MA, USA) to calculate the IC50 values.

Compound | logD [1] | tissue uptake at 1 h (in vivo; A431-CCK2R tumour uptake) | tissue uptake at 1 h (in vivo; A431-mock tumour uptake) | tissue uptake at 1 h (in vivo; Blood uptake) | tissue uptake at 1 h (in vivo; Bone uptake) | tissue uptake at 1 h (in vivo; Heart uptake) | tissue uptake at 1 h (in vivo; Intestine uptake) | tissue uptake at 1 h (in vivo; Kidneys uptake) | tissue uptake at 1 h (in vivo; Liver uptake) | tissue uptake at 1 h (in vivo; Lung uptake) | tissue uptake at 1 h (in vivo; Muscle uptake) | tissue uptake at 1 h (in vivo; Pancreas uptake) | tissue to tissue ratio at 1 h (in vivo; Ratio T/O tumour-to-Blood) | tissue to tissue ratio at 1 h (in vivo; Ratio T/O tumour-to-Bone) | tissue to tissue ratio at 1 h (in vivo; Ratio T/O tumour-to-Heart) | tissue to tissue ratio at 1 h (in vivo; Ratio T/O tumour-to-Intestine) | tissue to tissue ratio at 1 h (in vivo; Ratio T/O tumour-to-Kidneys) | tissue to tissue ratio at 1 h (in vivo; Ratio T/O tumour-to-Liver) | tissue to tissue ratio at 1 h (in vivo; Ratio T/O tumour-to-Lung) | tissue to tissue ratio at 1 h (in vivo; Ratio T/O tumour-to-Muscle) | further results
CCCC[C@H](NC(=O)[C@H](Cc1c[nH]c2ccccc12)NC(=O)CNC(=O)[C@H](Cc1ccc(O)cc1)NC(=O)[C@H](C)NC(=O)[C@@H](CCC(=O)O)NC(=O)CCSC1CC(=O)N(CCC(=O)NC2CCCN(O)C(=O)C=C(C)CCOC(=O)C(NC(=O)CCN3C(=O)CC(SCCC(=O)N[C@H](CCC(=O)O)C(=O)N[C@@H](C)C(=O)N[C@@H](Cc4ccc(O)cc4)C(=O)NCC(=O)N[C@@H](Cc4c[nH]c5ccccc45)C(=O)N[C@@H](CCCC)C(=O)N[C@@H](CC(=O)O)C(=O)N[C@@H](Cc4ccccc4)C(N)=O)C3=O)CCCN(O)C(=O)C=C(C)CCOC(=O)C(NC(C)=O)CCCN(O)C(=O)C=C(C)CCOC2=O)C1=O)C(=O)N[C@@H](CC(=O)O)C(=O)N[C@@H](Cc1ccccc1)C(N)=O (stereo partly drawn) [Dimer-Nle] (I: [Mpa][dE]AYGW[Nle]DF-NH2 / II: [Mpa][dE]AYGW[Nle]DF-NH2; linker I:1-II:1 via X2) | -2.05 ± 0.19 | 5 ± 0.79 %ID/g | 0.65 ± 0.14 %ID/g | 1.4 ± 0.48 %ID/g | 0.8 ± 0.37 %ID/g | 0.62 ± 0.12 %ID/g | 0.64 ± 0.12 %ID/g | 12.8 ± 0.16 %ID/g | 3.49 ± 0.94 %ID/g | 1.54 ± 0.33 %ID/g | 0.36 ± 0.12 %ID/g | 0.98 ± 0.28 %ID/g | 4 ± 1.3 | 7.6 ± 3.2 | 8.2 ± 1.2 | 8.1 ± 1.8 | 0.39 ± 0.06 | 1.5 ± 0.4 | 3.3 ± 0.5 | 15.8 ± 5.8 | tissue to tissue ratio at 1 h (in vivo; Ratio T/O tumour-to-Pancreas): 5.4 ± 1.3; tissue to tissue ratio at 1 h (in vivo; Ratio T/O tumour-to-Spleen): 5.2 ± 0.5; tissue to tissue ratio at 1 h (in vivo; Ratio T/O tumour-to-Stomach): 2.2 ± 0.3; tissue uptake at 1 h (in vivo; Spleen uptake): 0.95 ± 0.07 %ID/g; tissue uptake at 1 h (in vivo; Stomach uptake): 2.25 ± 0.17 %ID/g; Ratio T/O tumour-to-A431-mock [2]: 8.0 ± 1.8^c
CCCC[C@H](NC(=O)[C@H](Cc1c[nH]c2ccccc12)NC(=O)CNC(=O)[C@H](Cc1ccc(O)cc1)NC(=O)[C@H](C)NC(=O)[C@@H](CCC(=O)O)NC(=O)CCSC1CC(=O)N(CCC(=O)NC2CCCN(O)C(=O)C=C(C)CCOC(=O)C(NC(C)=O)CCCN(O)C(=O)C=C(C)CCOC(=O)C(NC(C)=O)CCCN(O)C(=O)C=C(C)CCOC2=O)C1=O)C(=O)N[C@@H](CC(=O)O)C(=O)N[C@@H](Cc1ccccc1)C(N)=O (stereo partly drawn) [Monomer-Nle] ([Mpa](X3)[dE]AYGW[Nle]DF-NH2) | -2.69 ± 0.14 | 1.97 ± 0.25 %ID/g | 0.22 ± 0.07 %ID/g | 0.25 ± 0.07 %ID/g | 0.3 ± 0.12 %ID/g | 0.12 ± 0.03 %ID/g | 0.36 ± 0.12 %ID/g | 2.72 ± 0.29 %ID/g | 0.17 ± 0.01 %ID/g | 0.25 ± 0.03 %ID/g | 0.1 ± 0.02 %ID/g | 0.24 ± 0.02 %ID/g | 9 ± 3.6 | 7.9 ± 3.1 | 17.6 ± 5.2 | 6.6 ± 3.6 | 0.75 ± 0.18 | 11.5 ± 2 | 8.1 ± 2.1 | 22.1 ± 6 | tissue to tissue ratio at 1 h (in vivo; Ratio T/O tumour-to-Pancreas): 8.4 ± 1.6; tissue to tissue ratio at 1 h (in vivo; Ratio T/O tumour-to-Spleen): 19.8 ± 4; tissue to tissue ratio at 1 h (in vivo; Ratio T/O tumour-to-Stomach): 3.1 ± 0.9; tissue uptake at 1 h (in vivo; Spleen uptake): 0.1 ± 0.03 %ID/g; tissue uptake at 1 h (in vivo; Stomach uptake): 0.66 ± 0.11 %ID/g; Ratio T/O tumour-to-A431-mock [2]: 9.8 ± 2.2^b
CCCC[C@H](NC(=O)[C@H](Cc1c[nH]c2ccccc12)NC(=O)CNC(=O)[C@H](Cc1ccc(O)cc1)NC(=O)[C@H](C)NC(=O)[C@@H](CCC(=O)O)NC(=O)CCSC1CC(=O)N(CCC(=O)NC2CCCN(O)C(=O)C=C(C)CCOC(=O)C(NC(=O)CCN3C(=O)CC(SCCC(=O)N[C@H](CCC(=O)O)C(=O)N[C@@H](C)C(=O)N[C@@H](Cc4ccc(O)cc4)C(=O)NCC(=O)N[C@@H](Cc4c[nH]c5ccccc45)C(=O)N[C@@H](CCCC)C(=O)N[C@@H](CC(=O)O)C(=O)N[C@@H](Cc4ccccc4)C(N)=O)C3=O)CCCN(O)C(=O)C=C(C)CCOC(=O)C(NC(=O)CCN3C(=O)CC(SCCC(=O)N[C@H](CCC(=O)O)C(=O)N[C@@H](C)C(=O)N[C@@H](Cc4ccc(O)cc4)C(=O)NCC(=O)N[C@@H](Cc4c[nH]c5ccccc45)C(=O)N[C@@H](CCCC)C(=O)N[C@@H](CC(=O)O)C(=O)N[C@@H](Cc4ccccc4)C(N)=O)C3=O)CCCN(O)C(=O)C=C(C)CCOC2=O)C1=O)C(=O)N[C@@H](CC(=O)O)C(=O)N[C@@H](Cc1ccccc1)C(N)=O (stereo partly drawn) [Trimer-Nle] (I: [Mpa][dE]AYGW[Nle]DF-NH2 / II: [Mpa][dE]AYGW[Nle]DF-NH2 / III: [Mpa][dE]AYGW[Nle]DF-NH2; linker I:1-II:1-III:1 via X1) | – | – | – | – | – | – | – | – | – | – | – | – | – | – | – | – | – | – | – | – | Distribution coefficient logD (pH 7.4) [1]: -1.80 ± 0.16; IC50 (CCK2 receptor): 20.9 ± 1.13 nM
